Measured values published in patent publication US20100113557A1 (ST MARIANNA UNIVERSITY SCHOOL OF MEDICINE, published 2010).

Biological target: T1, HERC2 (hect domain and RCC-like domain 2) (human, UniProt O95714 1-4834)
T1 construct: Endogenous protein of 293T or HeLa cells, found in BRCA1 immune precipitates from cell lysates; also called endogenous HERC2
Test: immunoprecipitation with anti-BRCA1 antibody, synchronized HeLa cells
Procedure: For the immunoprecipitation of a BRCA1 complex, the cell lysate was allowed to react with an anti-BRCA1 antibody at 4° C. for 1 hour. Thereafter, a precipitation reaction was carried out at 4° C. for 1 hour using Protein A and G sepharose (Invitrogen). The precipitate was washed with a 0.5% NP-40 buffer 3 times, and it was then re-suspended in an SDS sample buffer (50 mM Tris-HCl (pH6.8), 0.2% bromophenol blue, 10% glycerol, 2% SDS, and 100 mM DTT). The suspension was boiled for 3 minutes. As a peptide competition control, an equal amount of blocking peptide was added.

T1 sequence (O95714 other isoform, or with tags, fused parts or gaps limits assumed): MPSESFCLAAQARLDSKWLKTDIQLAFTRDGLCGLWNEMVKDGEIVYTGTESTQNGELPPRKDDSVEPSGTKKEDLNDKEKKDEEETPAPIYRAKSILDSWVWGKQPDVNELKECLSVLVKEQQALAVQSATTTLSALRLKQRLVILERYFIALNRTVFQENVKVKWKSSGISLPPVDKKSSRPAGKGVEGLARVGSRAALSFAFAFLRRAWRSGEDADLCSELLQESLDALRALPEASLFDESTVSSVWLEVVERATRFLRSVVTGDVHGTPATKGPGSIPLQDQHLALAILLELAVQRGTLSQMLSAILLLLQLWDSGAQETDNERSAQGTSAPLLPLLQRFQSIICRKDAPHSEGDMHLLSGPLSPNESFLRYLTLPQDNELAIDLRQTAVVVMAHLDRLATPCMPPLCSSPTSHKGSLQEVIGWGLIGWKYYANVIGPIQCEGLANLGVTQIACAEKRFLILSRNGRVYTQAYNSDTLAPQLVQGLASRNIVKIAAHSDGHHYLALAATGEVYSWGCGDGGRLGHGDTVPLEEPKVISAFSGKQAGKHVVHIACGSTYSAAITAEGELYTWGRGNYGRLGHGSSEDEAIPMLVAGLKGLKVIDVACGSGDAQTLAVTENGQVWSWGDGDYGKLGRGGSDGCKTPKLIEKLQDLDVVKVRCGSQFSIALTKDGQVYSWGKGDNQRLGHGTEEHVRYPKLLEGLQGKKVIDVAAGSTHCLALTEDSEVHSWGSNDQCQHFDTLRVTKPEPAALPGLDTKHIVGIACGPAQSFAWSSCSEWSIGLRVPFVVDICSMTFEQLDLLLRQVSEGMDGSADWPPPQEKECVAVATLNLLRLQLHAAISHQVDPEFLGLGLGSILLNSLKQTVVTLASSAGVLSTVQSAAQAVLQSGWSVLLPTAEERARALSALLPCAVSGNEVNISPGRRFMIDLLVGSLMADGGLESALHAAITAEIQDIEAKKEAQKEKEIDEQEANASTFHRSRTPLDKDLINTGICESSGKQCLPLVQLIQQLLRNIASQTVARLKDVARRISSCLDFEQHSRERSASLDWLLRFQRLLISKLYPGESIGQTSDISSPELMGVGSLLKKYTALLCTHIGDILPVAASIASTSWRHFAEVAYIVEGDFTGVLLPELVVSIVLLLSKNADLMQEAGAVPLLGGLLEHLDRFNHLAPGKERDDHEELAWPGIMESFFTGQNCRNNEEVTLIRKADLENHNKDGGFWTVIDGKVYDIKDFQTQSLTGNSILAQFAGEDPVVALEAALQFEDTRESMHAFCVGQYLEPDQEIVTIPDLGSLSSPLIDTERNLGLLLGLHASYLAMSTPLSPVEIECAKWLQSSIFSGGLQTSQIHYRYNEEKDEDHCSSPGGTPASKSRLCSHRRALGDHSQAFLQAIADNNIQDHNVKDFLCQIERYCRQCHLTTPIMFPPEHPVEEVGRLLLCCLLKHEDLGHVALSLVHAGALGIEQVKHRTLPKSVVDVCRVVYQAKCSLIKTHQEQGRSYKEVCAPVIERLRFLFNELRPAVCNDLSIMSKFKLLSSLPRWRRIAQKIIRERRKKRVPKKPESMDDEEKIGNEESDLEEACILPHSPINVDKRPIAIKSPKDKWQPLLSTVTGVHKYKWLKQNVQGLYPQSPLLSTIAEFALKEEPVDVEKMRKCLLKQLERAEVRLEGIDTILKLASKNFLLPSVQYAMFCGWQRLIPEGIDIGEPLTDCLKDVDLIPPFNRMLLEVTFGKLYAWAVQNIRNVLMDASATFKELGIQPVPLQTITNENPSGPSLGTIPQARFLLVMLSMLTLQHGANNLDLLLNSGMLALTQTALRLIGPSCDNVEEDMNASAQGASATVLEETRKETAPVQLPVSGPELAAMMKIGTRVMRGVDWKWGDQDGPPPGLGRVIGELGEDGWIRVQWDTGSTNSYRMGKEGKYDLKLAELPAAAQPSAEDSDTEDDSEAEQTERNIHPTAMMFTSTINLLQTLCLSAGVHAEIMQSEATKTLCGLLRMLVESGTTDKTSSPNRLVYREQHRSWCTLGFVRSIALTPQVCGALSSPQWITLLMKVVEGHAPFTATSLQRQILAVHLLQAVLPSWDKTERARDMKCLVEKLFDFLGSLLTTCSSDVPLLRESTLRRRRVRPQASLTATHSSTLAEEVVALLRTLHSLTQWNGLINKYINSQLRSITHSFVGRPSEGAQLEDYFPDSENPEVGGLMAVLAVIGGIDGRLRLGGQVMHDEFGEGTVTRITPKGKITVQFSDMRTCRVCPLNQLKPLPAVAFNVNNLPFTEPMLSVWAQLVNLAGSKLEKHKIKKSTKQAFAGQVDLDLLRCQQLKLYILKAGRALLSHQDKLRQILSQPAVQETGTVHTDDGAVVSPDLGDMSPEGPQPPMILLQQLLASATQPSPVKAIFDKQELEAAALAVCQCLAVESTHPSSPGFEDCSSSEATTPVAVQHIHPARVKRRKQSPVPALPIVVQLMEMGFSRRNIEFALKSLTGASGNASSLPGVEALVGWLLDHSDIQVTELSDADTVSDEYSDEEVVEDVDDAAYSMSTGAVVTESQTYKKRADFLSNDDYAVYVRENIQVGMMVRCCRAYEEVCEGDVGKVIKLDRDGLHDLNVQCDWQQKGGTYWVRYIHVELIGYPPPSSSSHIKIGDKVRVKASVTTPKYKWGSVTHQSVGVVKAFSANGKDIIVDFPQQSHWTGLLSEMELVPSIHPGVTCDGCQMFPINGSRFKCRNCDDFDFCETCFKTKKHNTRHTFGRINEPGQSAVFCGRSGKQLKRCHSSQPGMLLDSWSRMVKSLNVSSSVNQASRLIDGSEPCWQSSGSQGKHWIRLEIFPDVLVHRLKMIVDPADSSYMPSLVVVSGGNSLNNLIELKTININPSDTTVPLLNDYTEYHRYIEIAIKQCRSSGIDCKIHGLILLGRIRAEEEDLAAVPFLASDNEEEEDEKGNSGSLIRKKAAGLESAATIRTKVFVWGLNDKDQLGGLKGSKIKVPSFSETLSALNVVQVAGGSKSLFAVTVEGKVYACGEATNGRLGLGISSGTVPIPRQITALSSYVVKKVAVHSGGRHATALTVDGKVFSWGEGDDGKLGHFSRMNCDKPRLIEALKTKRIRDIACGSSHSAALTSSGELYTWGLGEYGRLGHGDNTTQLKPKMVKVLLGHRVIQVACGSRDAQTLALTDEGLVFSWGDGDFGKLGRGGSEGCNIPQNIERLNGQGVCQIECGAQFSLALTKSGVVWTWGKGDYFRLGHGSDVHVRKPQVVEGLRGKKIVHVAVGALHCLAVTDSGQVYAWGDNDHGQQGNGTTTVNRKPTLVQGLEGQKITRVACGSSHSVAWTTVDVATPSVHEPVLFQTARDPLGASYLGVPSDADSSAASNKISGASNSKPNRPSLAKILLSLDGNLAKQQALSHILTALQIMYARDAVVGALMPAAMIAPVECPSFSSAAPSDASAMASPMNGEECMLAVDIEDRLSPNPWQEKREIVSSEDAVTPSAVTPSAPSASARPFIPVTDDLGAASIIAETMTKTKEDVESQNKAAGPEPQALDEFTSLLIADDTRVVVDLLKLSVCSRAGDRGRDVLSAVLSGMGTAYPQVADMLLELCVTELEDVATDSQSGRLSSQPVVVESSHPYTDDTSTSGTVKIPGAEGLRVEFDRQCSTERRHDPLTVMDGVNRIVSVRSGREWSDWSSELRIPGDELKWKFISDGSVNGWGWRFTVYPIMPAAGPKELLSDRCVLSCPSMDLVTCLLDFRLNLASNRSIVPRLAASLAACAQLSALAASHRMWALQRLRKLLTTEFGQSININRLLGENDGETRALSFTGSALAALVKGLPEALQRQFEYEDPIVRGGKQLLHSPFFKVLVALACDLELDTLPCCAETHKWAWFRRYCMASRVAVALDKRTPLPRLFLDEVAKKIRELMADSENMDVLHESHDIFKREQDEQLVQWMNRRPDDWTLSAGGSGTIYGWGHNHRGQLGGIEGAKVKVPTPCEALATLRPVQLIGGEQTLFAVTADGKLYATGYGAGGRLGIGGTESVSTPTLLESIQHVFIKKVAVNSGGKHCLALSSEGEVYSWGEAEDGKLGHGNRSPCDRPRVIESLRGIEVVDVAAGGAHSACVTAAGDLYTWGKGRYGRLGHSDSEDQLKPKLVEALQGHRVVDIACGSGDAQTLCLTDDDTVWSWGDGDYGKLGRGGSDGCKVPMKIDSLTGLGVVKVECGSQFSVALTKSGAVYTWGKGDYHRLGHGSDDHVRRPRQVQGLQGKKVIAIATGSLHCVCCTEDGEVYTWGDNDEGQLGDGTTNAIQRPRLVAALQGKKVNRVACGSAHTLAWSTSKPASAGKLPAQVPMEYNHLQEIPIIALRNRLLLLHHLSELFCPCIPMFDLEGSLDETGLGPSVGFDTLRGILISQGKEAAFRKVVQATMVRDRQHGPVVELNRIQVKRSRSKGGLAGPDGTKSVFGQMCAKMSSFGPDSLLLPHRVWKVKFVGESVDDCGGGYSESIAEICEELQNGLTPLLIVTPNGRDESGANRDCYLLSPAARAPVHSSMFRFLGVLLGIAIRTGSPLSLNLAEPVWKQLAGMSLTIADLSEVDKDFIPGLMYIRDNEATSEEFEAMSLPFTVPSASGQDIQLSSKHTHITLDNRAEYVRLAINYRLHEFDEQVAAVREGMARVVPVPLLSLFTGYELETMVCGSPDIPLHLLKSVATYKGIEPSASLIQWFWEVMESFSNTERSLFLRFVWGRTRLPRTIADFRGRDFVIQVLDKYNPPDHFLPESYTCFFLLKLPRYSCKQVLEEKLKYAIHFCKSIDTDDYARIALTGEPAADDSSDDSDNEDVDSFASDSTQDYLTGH

binding result: binds
B1: BRCA1 (endogenous) (other, UniProt P38398 1-1863, looked up)
chain: MDLSALRVEEVQNVINAMQKILECPICLELIKEPVSTKCDHIFCKFCMLKLLNQKKGPSQCPLCKNDITKRSLQESTRFSQLVEELLKIICAFQLDTGLEYANSYNFAKKENNSPEHLKDEVSIIQSMGYRNRAKRLLQSEPENPSLQETSLSVQLSNLGTVRTLRTKQRIQPQKTSVYIELGSDSSEDTVNKATYCSVGDQELLQITPQGTRDEISLDSAKKAACEFSETDVTNTEHHQPSNNDLNTTEKRAAERHPEKYQGSSVSNLHVEPCGTNTHASSLQHENSSLLLTKDRMNVEKAEFCNKSKQPGLARSQHNRWAGSKETCNDRRTPSTEKKVDLNADPLCERKEWNKQKLPCSENPRDTEDVPWITLNSSIQKVNEWFSRSDELLGSDDSHDGESESNAKVADVLDVLNEVDEYSGSSEKIDLLASDPHEALICKSERVHSKSVESNIEDKIFGKTYRKKASLPNLSHVTENLIIGAFVTEPQIIQERPLTNKLKRKRRPTSGLHPEDFIKKADLAVQKTPEMINQGTNQTEQNGQVMNITNSGHENKTKGDSIQNEKNPNPIESLEKESAFKTKAEPISSSISNMELELNIHNSKAPKKNRLRRKSSTRHIHALELVVSRNLSPPNCTELQIDSCSSSEEIKKKKYNQMPVRHSRNLQLMEGKEPATGAKKSNKPNEQTSKRHDSDTFPELKLTNAPGSFTKCSNTSELKEFVNPSLPREEKEEKLETVKVSNNAEDPKDLMLSGERVLQTERSVESSSISLVPGTDYGTQESISLLEVSTLGKAKTEPNKCVSQCAAFENPKGLIHGCSKDNRNDTEGFKYPLGHEVNHSRETSIEMEESELDAQYLQNTFKVSKRQSFAPFSNPGNAEEECATFSAHSGSLKKQSPKVTFECEQKEENQGKNESNIKPVQTVNITAGFPVVGQKDKPVDNAKCSIKGGSRFCLSSQFRGNETGLITPNKHGLLQNPYRIPPLFPIKSFVKTKCKKNLLEENFEEHSMSPEREMGNENIPSTVSTISRNNIRENVFKEASSSNINEVGSSTNEVGSSINEIGSSDENIQAELGRNRGPKLNAMLRLGVLQPEVYKQSLPGSNCKHPEIKKQEYEEVVQTVNTDFSPYLISDNLEQPMGSSHASQVCSETPDDLLDDGEIKEDTSFAENDIKESSAVFSKSVQKGELSRSPSPFTHTHLAQGYRRGAKKLESSEENLSSEDEELPCFQHLLFGKVNNIPSQSTRHSTVATECLSKNTEENLLSLKNSLNDCSNQVILAKASQEHHLSEETKCSASLFSSQCSELEDLTANTNTQDPFLIGSSKQMRHQSESQGVGLSDKELVSDDEERGTGLEENNQEEQSMDSNLGEAASGCESETSVSEDCSGLSSQSDILTTQQRDTMQHNLIKLQQEMAELEAVLEQHGSQPSNSYPSIISDSSALEDLRNPEQSTSEKAVLTSQKSSEYPISQNPEGLSADKFEVSADSSTSKNKEPGVERSSPSKCPSLDDRWYMHSCSGSLQNRNYPSQEELIKVVDVEEQQLEESGPHDLTETSYLPRQDLEGTPYLESGISLFSDDPESDPSEDRAPESARVGNIPSSTSALKVPQLKVAESAQSPAAAHTTDTAGYNAMEESVSREKPELTASTERVNKRMSMVVSGLTPEEFMLVYKFARKHHITLTNLITEETTHVVMKTDAEFVCERTLKYFLGIAGGKWVVSYFWVTQSIKERKMLNEHDFEVRGDVVNGRNHQGPKRARESQDRKIFRGLEICCYGPFTNMPTDQLEWMVQLCGASVVKELSSFTLGTGVHPIVVVQPDAWTEDNGFHAIGQMCEAPVVTREWVLDSVALYQCQELDTYLIPQIPHSHY
notes: Endogenous protein, precipitated from cell lysate with an anti-BRCA1 antibody; also called endogenous BRCA1
